The target of experiment [1] is N-terminal domain of human CD117, soluble (HuCD117 1-308) (human, UniProt P10721 26-308). As to the kind of experiment: SPR Biacore 4000, captured antibody, soluble CD117 analyte, 1:1 fit.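 Also: antibodies captured on CM5 chips via goat anti-human IgG or IgA, CD117 analyte in two-fold series 0.8–200 nM, run at pH 7.3 and 37 °C, double-referenced sensorgrams.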 A general note: SPR reads the build-up and loss of mass on a sensor chip optically.
Method: (§1) Biacore 4000 was used for all binding analyses. Experiments were performed at pH 7.3, 37° C. and under flow rate of 30 μL/min. Human anti-CD117 antibodies were surface captured using either polyclonal goat anti-human IgG or IgA antibodies directly immobilised onto the carboxymethyl dextran surface of CM5 sensorchips to approximately 13,000 RU using standard NHS/EDC chemistry at pH 5. The immobilised antibody surface was pre-conditioned with ten injections of human polyclonal IgG (Privigen 60s, 10 μg/mL) each followed by a regeneration cycle with 100 mM H3PO4.
(§2) A total of 18 anti-CD117 antibodies (2 μg/mL) were tested as captured ligands against four soluble mammalian CD117 receptor variants: the N-terminal domain of human CD117 (HuCD1₁₇₁₋₃₀₈), full length human CD117 (HuCD1₁₇₁₋₅₂₄), cyno CD117 (cynoCD117₁₋₅₂₀), and murine CD117 (MuCD117₁₋₅₂₇).
(§3) CD117 proteins were prepared in two-fold dilutions ranging from 0.8 to 200 nM. Anti-CD117 antibodies huAb249, huAb85, huCK6 and huhzSR1 were used as positive controls. BM4 was prepared in an IgG and IgA2 format and used as negative control. Binding affinities were calculated from sensorgrams double-referenced using reference surface and blank buffer injection data gathered within each experiment.
Experiment [2] addresses T1, Full length human CD117, soluble (HuCD117 1-524) (human, UniProt P10721 26-524).
T1 construct: also called full-length protein
The description is as above.
Method: as §1, §2, §3

Experiment [3] addresses T2, Cyno CD117, soluble (cynoCD117 1-520) (cynomolgus monkey, UniProt P10721 26-520 (human entry)).
T2 construct: Residues as printed
T2 chain: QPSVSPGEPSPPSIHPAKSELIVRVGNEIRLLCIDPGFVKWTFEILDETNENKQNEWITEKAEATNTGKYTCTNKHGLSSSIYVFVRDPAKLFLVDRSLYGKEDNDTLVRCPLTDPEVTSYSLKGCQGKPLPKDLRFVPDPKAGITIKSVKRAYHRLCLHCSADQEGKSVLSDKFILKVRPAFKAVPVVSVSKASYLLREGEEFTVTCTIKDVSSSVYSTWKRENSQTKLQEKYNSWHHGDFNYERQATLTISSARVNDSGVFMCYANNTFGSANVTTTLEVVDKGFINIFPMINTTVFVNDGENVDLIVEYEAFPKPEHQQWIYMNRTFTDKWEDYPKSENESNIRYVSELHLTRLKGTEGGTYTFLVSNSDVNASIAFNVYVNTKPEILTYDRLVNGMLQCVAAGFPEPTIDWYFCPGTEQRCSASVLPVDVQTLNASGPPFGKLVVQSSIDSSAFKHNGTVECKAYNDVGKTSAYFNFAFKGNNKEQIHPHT
The description is as above.
Method: as §1, §2, §3

Experiment [4] has as its target T3, Human CD117 (c-kit), cell-surface expressed (human, UniProt P10721 26-976).
T3 construct: also called hCD117; SCFR
Put plainly: flow cytometry on TF-1 cells, IgG1 format, anti-human IgG Fab-AF488, total binding. A general note: Flow cytometry measures light scatter and fluorescence of single cells or particles in a stream.
Method: (§4) After a one hour incubation on ice, cells were washed once prior to fixation.
(§5) Mean fluorescence intensities (MFI) were obtained using Flowjo v10 and analysed using GraphPad Prism. Total binding curves for TF-1 cells and specific binding curves for HEK293FS expressing CD117 (generated by subtracting non-specific binding to parental cells) were plotted. EC50 values for each anti-CD117-IgG1 antibody tested was determined using a non-linear regression model.

Experiment [5] has as its target T3, Human CD117 (c-kit), cell-surface …. As to the kind of experiment: flow cytometry on HEK293FS cells expressing human CD117, IgG1 format, signal of parental cells subtracted.
Method: as §4, §5
The target in experiment [6] is T4, Cynomolgus monkey CD117, expressed on HEK293FS cells (cynomolgus monkey, UniProt P10721 26-976 (human entry)).
T4 construct: The construct transfected is not further described; also called cyno CD117
T4 chain: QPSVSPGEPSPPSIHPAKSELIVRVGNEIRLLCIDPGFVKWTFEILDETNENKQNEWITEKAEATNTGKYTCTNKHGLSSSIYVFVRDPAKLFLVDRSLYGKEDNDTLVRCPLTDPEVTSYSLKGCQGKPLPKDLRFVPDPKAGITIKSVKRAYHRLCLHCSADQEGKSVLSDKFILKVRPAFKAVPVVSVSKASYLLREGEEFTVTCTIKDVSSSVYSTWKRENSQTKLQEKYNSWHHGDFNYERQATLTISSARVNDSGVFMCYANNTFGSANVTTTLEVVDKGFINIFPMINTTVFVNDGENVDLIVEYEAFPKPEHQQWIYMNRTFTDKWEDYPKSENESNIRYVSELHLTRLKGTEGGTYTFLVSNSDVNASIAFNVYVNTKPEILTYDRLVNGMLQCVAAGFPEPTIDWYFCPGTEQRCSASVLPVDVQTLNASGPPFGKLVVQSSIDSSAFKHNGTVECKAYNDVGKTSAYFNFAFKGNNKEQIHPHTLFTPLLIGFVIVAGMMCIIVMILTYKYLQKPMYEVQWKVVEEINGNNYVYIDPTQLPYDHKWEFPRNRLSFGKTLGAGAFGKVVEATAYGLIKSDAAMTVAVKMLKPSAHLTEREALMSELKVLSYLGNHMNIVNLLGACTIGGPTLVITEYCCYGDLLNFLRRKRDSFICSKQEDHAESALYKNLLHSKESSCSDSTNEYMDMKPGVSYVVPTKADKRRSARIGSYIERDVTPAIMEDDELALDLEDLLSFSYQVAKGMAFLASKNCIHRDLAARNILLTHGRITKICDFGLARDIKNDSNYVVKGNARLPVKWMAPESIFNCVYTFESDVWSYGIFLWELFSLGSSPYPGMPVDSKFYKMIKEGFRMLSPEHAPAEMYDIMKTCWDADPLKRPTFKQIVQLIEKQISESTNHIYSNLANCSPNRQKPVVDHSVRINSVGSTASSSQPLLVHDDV
Put plainly: flow cytometry on HEK293FS cells expressing cynomolgus CD117, IgG1 format, signal of parental cells subtracted.
Method: as §4, §5

The target in experiment [7] is T1, Full length human CD117, soluble …. As to the kind of experiment: SPR Biacore 4000, captured antibody, soluble CD117 analyte.
Method: as §1, §2, §3
In experiment [8] the target is T2, Cyno CD117, soluble (cynoCD117 1-520). Described as above.
Method: as §1, §2, §3
In experiment [9] the target is T5, Murine CD117, soluble (MuCD117 1-527) (mouse, UniProt P05532 25-527).
T5 construct: Residues as printed
T5 sequence: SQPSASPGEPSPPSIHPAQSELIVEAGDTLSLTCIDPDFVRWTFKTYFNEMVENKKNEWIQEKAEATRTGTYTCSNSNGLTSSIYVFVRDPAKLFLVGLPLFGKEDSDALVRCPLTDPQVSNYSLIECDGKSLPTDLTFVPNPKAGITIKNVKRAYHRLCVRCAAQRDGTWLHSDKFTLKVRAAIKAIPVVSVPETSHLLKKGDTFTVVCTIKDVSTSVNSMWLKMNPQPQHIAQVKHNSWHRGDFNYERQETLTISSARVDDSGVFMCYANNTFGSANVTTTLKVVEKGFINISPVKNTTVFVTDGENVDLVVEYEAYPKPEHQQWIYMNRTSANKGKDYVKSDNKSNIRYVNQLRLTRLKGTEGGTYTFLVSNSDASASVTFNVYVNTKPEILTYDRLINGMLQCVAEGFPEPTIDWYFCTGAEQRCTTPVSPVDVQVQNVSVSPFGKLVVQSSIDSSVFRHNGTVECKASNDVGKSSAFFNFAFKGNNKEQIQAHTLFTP
As to the kind of experiment: SPR, captured antibody, soluble CD117 analyte.
Method: as §1, §2, §3

Experiment [10] deals with T4, Cynomolgus monkey CD117, expressed on …. Put plainly: flow cytometry on HEK293FS cells expressing cynomolgus CD117, IgG1 format, signal of parental cells subtracted [F].
Method: as §4, §5
In experiment [11] the target is T5, Murine CD117, soluble (MuCD117 1-527). Put plainly: SPR Biacore 4000, captured antibody, soluble CD117 analyte.
Method: as §1, §2, §3
Experiment [12] has as its target T6, Mouse CD117, expressed on HEK293FS cells (mouse, UniProt P05532 25-979).
T6 construct: The construct transfected is not further described; also called murine CD117
As to the kind of experiment: flow cytometry on HEK293FS cells expressing mouse CD117, IgG1 format, signal of parental cells subtracted.
Method: as §4, §5

Some results are limits rather than exact numbers.

N-terminal domain of human CD117, soluble (HuCD117 1-308), sequence (P10721 26-308): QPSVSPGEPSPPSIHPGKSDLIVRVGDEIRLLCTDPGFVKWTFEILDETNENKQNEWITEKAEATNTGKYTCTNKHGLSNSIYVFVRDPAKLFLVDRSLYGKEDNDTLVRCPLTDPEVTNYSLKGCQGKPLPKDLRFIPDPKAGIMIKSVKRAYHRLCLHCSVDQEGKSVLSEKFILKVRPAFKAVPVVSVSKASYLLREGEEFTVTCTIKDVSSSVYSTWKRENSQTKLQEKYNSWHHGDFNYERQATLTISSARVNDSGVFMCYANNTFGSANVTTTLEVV
T1 sequence (P10721 26-524): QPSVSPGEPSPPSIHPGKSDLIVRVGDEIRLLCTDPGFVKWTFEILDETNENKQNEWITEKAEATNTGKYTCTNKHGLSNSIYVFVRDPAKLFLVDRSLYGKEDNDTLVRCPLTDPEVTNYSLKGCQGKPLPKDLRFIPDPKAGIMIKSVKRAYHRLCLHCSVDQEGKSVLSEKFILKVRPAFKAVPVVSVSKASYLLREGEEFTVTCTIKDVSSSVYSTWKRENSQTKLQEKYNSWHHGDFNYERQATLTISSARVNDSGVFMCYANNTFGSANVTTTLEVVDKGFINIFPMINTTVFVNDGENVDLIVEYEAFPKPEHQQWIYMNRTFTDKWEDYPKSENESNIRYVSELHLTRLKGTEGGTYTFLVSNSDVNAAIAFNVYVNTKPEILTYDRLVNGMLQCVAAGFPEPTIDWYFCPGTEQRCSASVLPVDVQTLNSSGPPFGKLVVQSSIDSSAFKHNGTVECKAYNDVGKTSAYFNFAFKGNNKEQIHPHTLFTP

B1: hu4A2 IgG1 (hu4A2-hKG1) (antibody)
heavy: not shown
light: EIVLTQSPGTLSLSPGKRATLSCRASQSVSNSYLAWYQQKPGQPPKLLIYWASTRESGVPDRFSGSGSGTDFTLTISSLQAEDVAVYYCQQYYSTPLTFGGGTKVEIKRTVAAPSVFIFPPSDEQLKSGTASVVCLLNNFYPREAKVQWKVDNALQSGNSQESVTEQDSKDSTYSLSSTLTLSKADYEKHKVYACEVTHQGLSSPVTKSFNRGEC
notes: Human IgG1, kappa; also called hu4Aa
Regarding B1, the Kd in [1] was 14.4 nM; in experiment [2], 32.4 nM; in [3] it was 34.6 nM. Also, the “EC50 (read off the curve)” value was roughly 0.2 nM in experiment [4], roughly 0.5 nM in [5] and roughly 0.3 nM in experiment [6].

B2: hu4A2 IgA2 (hu4A2-hKhA2 (P221R)) (antibody)
heavy: EVQLLESGGGLVQPGGSLRLSCAASGFTFSDYGMSWVRQAPGKGLEWVSAIGYGGGGKYYADSVKGRFTISRDNSKNTLYLQMNSLRAEDTAVYYCAKDTWWLAGLFDYWGQGTLVTVSSASPTSPKVFPLSLDSTPQDGNVVVACLVQGFFPQEPLSVTWSESGQNVTARNFPPSQDASGDLYTTSSQLTLPATQCPDGKSVTCHVKHYTNSSQDVTVPCRVPPPPPCCHPRLSLHRPALEDLLLGSEANLTCTLTGLRDASGATFTWTPSSGKSAVQGPPERDLCGCYSVSSVLPGCAQPWNHGETFTCTAAHPELKTPLTANITKSGNTFRPEVHLLPPPSEELALNELVTLTCLARGFSPKDVLVRWLQGSQELPREKYLTWASRQEPSQGTTTFAVTSILRVAAEDWKKGDTFSCMVGHEALPLAFTQKTIDRLAGKPTHVNVSVVMAEVDGTCY
light: B1 light
As for B2, the “fold gain in affinity (IgA2 backbone vs IgG1 or IgG4)” value in [7] is roughly 2 fold; in [8] it was roughly 10 fold. Further, the Kd stood at 8.61 nM in [1], 18.6 nM in experiment [2] and 3 nM in experiment [3].

B3: hu3B3 IgG1 (hu3B3-hLG1) (antibody)
heavy: not shown
light: SYELTQPPSVSVSPGQTASITCSGDKVGAKYVFWYQQKPGQSPVLVVYQDNKRPSGIPERFSGSNSGNTATLTISGTQAMDEADYYCQAWDSSTALYVFGTGTKVTVLGQPKANPTVTLFPPSSEELQANKATLVCLISDFYPGAVTVAWKADGSPVKAGVETTKPSKQSNNKYAASSYLSLTPEQWKSHRSYSCQVTHEGSTVEKTVAPTECS
notes: Human IgG1, lambda
With B3, the binding result in experiment [9] is recorded as “no binding (tested: 200 nM (highest CD117 concentration))”; in [10], “binds”. The Kd in [1] was 1.07 nM; in experiment [2] it was 4.2 nM; in experiment [3], 5.7 nM. For the same molecule, in [4], the “EC50 (read off the curve)” value was roughly 0.04 nM.

B4: hu3B2 IgG1 (hu3B2-hLG1) (antibody)
heavy: not shown
light: SYELTQPPSVSVSPGQTATITCSGDKLGETYVHWYQHQSGQSPILVVYQDFKRPSGIPERFSGSNSGNTATLTISGTQAMDEADYYCQAWDSSTAVFGGGTKLTVLGQPKAAPSVTLFPPSSEELQANKATLVCLISDFYPGAVTVAWKADGSPVKAGVETTKPSKQSNNKYAASSYLSLTPEQWKSHRSYSCQVTHEGSTVEKTVAPTECS
notes: Human IgG1, lambda
As for B4, the Kd in [11] was greater than 1000 nM; in experiment [2], 54.6 nM; in experiment [3], 58.7 nM. In experiment [12], the “EC50 (read off the curve)” value was roughly 0.3 nM.

B5: hu3B2 IgA2 (hu3B2-hLhA2 (P221R)) (antibody)
heavy: QVQLQESGPGLVKPSETLSLTCTVSGYSISSGYYWGWIRQPPGKGLEWIGSIYHSGSTYYNPSLKSRVTISVDTSKNQFSLKLSSVTAADTAVYYCARVGVRYFDWLLYGAFDIWGQGTMVTVSSASPTSPKVFPLSLDSTPQDGNVVVACLVQGFFPQEPLSVTWSESGQNVTARNFPPSQDASGDLYTTSSQLTLPATQCPDGKSVTCHVKHYTNSSQDVTVPCRVPPPPPCCHPRLSLHRPALEDLLLGSEANLTCTLTGLRDASGATFTWTPSSGKSAVQGPPERDLCGCYSVSSVLPGCAQPWNHGETFTCTAAHPELKTPLTANITKSGNTFRPEVHLLPPPSEELALNELVTLTCLARGFSPKDVLVRWLQGSQELPREKYLTWASRQEPSQGTTTFAVTSILRVAAEDWKKGDTFSCMVGHEALPLAFTQKTIDRLAGKPTHVNVSVVMAEVDGTCY
light: B4 light
As to B5, the dissociation constant Kd in [11] was greater than 1000 nM; in experiment [2], 35.9 nM; in experiment [3] it was 39.9 nM.

B6: hu3C2 IgG1 (hu3C2-hLG1) (antibody)
heavy: not shown
light: SYELTQDPAVSVALGQTVRITCQGDSLRDYYANWFQQKPGQAPLLVIFYDSDRPSGIPERFSGSNSGNTATLTISRVEAGDEADYYCQAWDSSSDHWVFGGGTKLTVLGQPKAAPSVTLFPPSSEELQANKATLVCLISDFYPGAVTVAWKADGSPVKAGVETTKPSKQSNNKYAASSYLSLTPEQWKSHRSYSCQVTHEGSTVEKTVAPTECS
notes: Human IgG1, lambda
Take B6: the binding result in [9] is on record as “no binding (tested: 200 nM (highest CD117 concentration))”. Also, the Kd in experiment [1] is 4.14 nM; in experiment [2], 14.4 nM; in experiment [3], 33.7 nM. For the same molecule, the “EC50 (read off the curve)” value was roughly 0.2 nM in experiment [4], roughly 0.4 nM in [5] and roughly 0.3 nM in [6].

Broadly, the Kd is the free concentration of one partner at which half of the binding sites on the other are occupied at equilibrium, for simple one-to-one binding. As usually defined, the EC50 (read off the curve) is the midpoint of the concentration-response curve.

These data come from patent US20250171536A1 (CSL INNOVATION, published 2025).
